The results in this text go back to publication PMC6499106, “The CXCR4-LASP1-eIF4F Axis Promotes Translation of Oncogenic Proteins in Triple-Negative Breast Cancer Cells” (Frontiers in Oncology, 2019).

The assay has as its target T1, eIF4E, the cap binding subunit of eIF4F, endogenous in 231S cells (human (endogenous in 231S, MDA-MB-231), UniProt P06730 1-217).
T1 construct: source: endogenous, 231S cells, in lysate, held on m7-GTP agarose beads
Nature of the assay: pull-down; m7-GTP agarose beads with 1 mg 231S lysate in Co-IP buffer overnight at 4°C; cells stimulated with 20 nM CXCL12 over time, with or without 100 nM AMD3465; eIF4E as precipitate, LASP1 or eIF4G as co-precipitate by Western blot. As to conditions: partners not purified. In general terms: In western blotting, separated proteins are transferred to a membrane and probed.

T1 sequence (P06730 whole entry): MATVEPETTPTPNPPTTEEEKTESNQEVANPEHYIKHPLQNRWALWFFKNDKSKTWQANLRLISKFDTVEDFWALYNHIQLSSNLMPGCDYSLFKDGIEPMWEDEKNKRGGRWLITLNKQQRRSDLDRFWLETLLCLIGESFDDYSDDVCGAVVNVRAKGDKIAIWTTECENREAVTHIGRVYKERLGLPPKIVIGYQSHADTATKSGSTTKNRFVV

B1: LIM and SH3 Protein 1 (LASP1), endogenous in 231S cells (natural protein, human (endogenous in 231S, MDA-MB-231), UniProt Q14847 1-261, looked up)
chain: MNPNCARCGKIVYPTEKVNCLDKFWHKACFHCETCKMTLNMKNYKGYEKKPYCNAHYPKQSFTMVADTPENLRLKQQSELQSQVRYKEEFEKNKGKGFSVVADTPELQRIKKTQDQISNIKYHEEFEKSRMGPSGGEGMEPERRDSQDGSSYRRPLEQQQPHHIPTSAPVYQQPQQQPVAQSYGGYKEPAAPVSIQRSAPGGGGKRYRAVYDYSAADEDEVSFQDGDTIVNVQQIDDGWMYGTVERTGDTGMLPANYVEAI
notes: LIM and SH3 protein 1 (LASP1), endogenous in human 231S breast cancer cells; source: endogenous, 231S (MDA-MB-231 sorted for high CXCR4) cells, in lysate or in situ
On to B1, for which the “fold change of co-precipitate, CXCL12 for 5 min against 0 min” value was determined as 2.2 fold.
